Measurements as given in the supplement of paper PMC12042874.
± gives the uncertainty stated by the source.

Assay: amyloid nucleation score (Sup35N fusion, yeast selection) (log enrichment); library NNK3; higher = more nucleation; inactive = no reads after selection
Method in brief: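 For the nucleation score, DiMSum gave the log enrichment of output over input reads, centred on the mode score of non-aggregating sequences. Psi-negative yeast expressing Sup35N fused to peptides of 20 random codons were induced with 100 μM copper sulfate for 24 hours and grown 7 days at 30°C on medium lacking adenine and uracil. Input and output plasmid inserts were Illumina-sequenced, and sequences with under 100 input reads were excluded.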

| Substance | amyloid nucleation score |
| --- | --- |
| ECYIVWFLRLCSSGVYVYLR | inactive |
| EDERNSMCTKPIRDHRLSWM | inactive |
| EDGCRNVRLFTMVRSLMYK | inactive |
| EDLSVNNSAYVFPSLE | inactive |
| EDQLL | -0.077 ± 0.54 |
| EDYRVGW | inactive |
| EEVMMRAINQEAPCEPQLRV | inactive |
| EEVSVA | inactive |
| EFALTIWCLGAALCIIKSLS | inactive |
| EFGFVNGNRAGWGYFQRRAL | -0.55 ± 2.4 |
| EFGVVVNEFYGDVY | inactive |
| EFSYISVCRLQLLMHTKIWD | 1.43 ± 0.14 |
| EFVRVLRDISLVSGVMGYHY | inactive |
| EFWQFDRYVLSNTVSLFSGC | inactive |
| EGCSVRRTTHRAQVMRVGWM | inactive |
| EGFIVSRISAGDRSGDMEGC | inactive |
| EGNCELCRLWYNWGRVAGNK | 0.457 ± 0.2 |
| EHCSGNFRLNLSCDEVHIWM | 2.99 ± 0.063 |
| EHFNPRNC | inactive |
| EHNNQLGIWSTYPCSNLSGH | inactive |
| EHNYVSTIGYSCRFEPGTRR | inactive |
| EIGFYCPSGAGGHRKDRVLR | inactive |
| EKCWFQVCCTRSLGKSGIIC | inactive |
| EKGIGYKLCMGQYAGS | inactive |

| Substance | amyloid nucleation score |
| --- | --- |
| EKQKSLFCVLMVGLFYVNV | inactive |
| EKSICWSNFIAWITIWPKGR | inactive |
| EKTWKDWTHLSGRKRMI | inactive |
| ELCEKMFRTIFCFKCRVCMN | inactive |
| ELCTVLIVRFSRGSERLKNE | inactive |
| ELFDWTFLFPDSSINMWK | inactive |
| ELGGFFNEAGVTNHPIMS | inactive |
| ELRCFTQIGLGSCYRFIGYI | 0.371 ± 0.74 |
| ELRELFQNCL | inactive |
| ELRSL | inactive |
| ELYMQMCYRRIGCV | inactive |
| ENWTDGM | inactive |
| EPYPM | inactive |
| EQSLFES | inactive |
| ERALPQGMDRWSWFRERSCH | inactive |
| ERIVPA | inactive |
| ERKVCAG | inactive |
| ERPSLVEW | inactive |
| ERRKIGLKLLRLRQNNGIMA | inactive |
| ERSITGYNPPRRV | -0.561 ± 0.82 |
| ESADATLREAKSSVYKKYRY | inactive |
| ESFESVYR | inactive |
| ESRLIISKDGRRSMSKHGGP | inactive |
| ESRSFCLNCQGWVSSEA | inactive |

| Substance | amyloid nucleation score |
| --- | --- |
| ESRSRLRNGTLFNCVIN | -0.081 ± 0.5 |
| ESVCYLFCYSHYLGNYGYGS | inactive |
| ETHLDTLPVVYHLWLLHVLM | inactive |
| ETLGFVSMCHDSLMHNH | inactive |
| ETLWVKVYLTYLNMTRMSGY | inactive |
| ETNEGPH | inactive |
| ETQWFEI | inactive |
| ETYFAQWLNFL | inactive |
| EVFEWSVRLFSTL | inactive |
| EVFSDVY | inactive |
| EVKAMTWLVIVETIVFMS | inactive |
| EVLNCSR | inactive |
| EVQVFSFDTGCMHSHNLYAS | inactive |
| EVSWD | inactive |
| EWPVNTNVYFCFMYTANFNT | 2.63 ± 0.055 |
| EYCKISD | inactive |
| EYDSYSKIYWHISLAVFILI | inactive |
| EYGALSTFLRG | -0.337 ± 0.9 |
| EYHKMTGIFAPLFILIMVV | inactive |
| EYLPEQPVCIVMSYTPKFPC | inactive |
| EYNPWFDCWICSEVSATNNR | 1.96 ± 0.077 |
| EYSLMVNSTIDYFGDSNICE | inactive |
| EYYDI | inactive |
| FAQFLG | inactive |

| Substance | amyloid nucleation score |
| --- | --- |
| FARFSIAFMH | 0.231 ± 0.9 |
| FATVYELAYYQGTYCKVRCS | 0.148 ± 0.78 |
| FAVTLNSWRARFRFMDRNDM | 0.682 ± 0.26 |
| FAYITHLKKYKSWTVPWTYY | inactive |
| FAYWWRTVTPVCSGLVRYCW | inactive |
| FCACLERQTSLNF | inactive |
| FCDAKYLRLRSCALISMPSV | inactive |
| FCFSYSYAYFCHIYGCGSNR | -0.281 ± 0.36 |
| FCFYRKKGVVGCILFYACFR | inactive |
| FCLLIRAVSPCLTSGRIILV | inactive |
| FCLVGIFTCRGTLNTLLALH | inactive |
| FCMALRKRNFGRFMSKSKEY | inactive |
| FCNCNMFYDLCLCAHGMPSA | 2.99 ± 0.067 |
| FCRPLSCRSIWCHLLPTHLR | inactive |
| FCRQGNILFY | inactive |
| FCVTQWRAQRASHLYFMPGE | inactive |
| FDERRSRGPSKSMKGLLTTY | inactive |
| FDERSF | inactive |
| FDLFFACFPSRETGLKSCKT | inactive |
| FDLLRSNYYSFRCVCEVIDR | inactive |
| FDLRSWCM | inactive |
| FDLTWSIVEHFHVWLLRFSF | inactive |
| FDMVFVLENRLYRSMANLSF | inactive |
| FDSQGEPVPKPSAMMRGRMC | inactive |

| Substance | amyloid nucleation score |
| --- | --- |
| FDVIS | inactive |
| FDVRCLWYCQK | 1.33 ± 0.17 |
| FECDKENSSLDSPFMLAFKD | inactive |
| FECMRELPRAPTKPGSWRHA | inactive |
| FEDCSTLH | -0.482 ± 0.84 |
| FERDMVQ | inactive |
| FERSMHFENRDSDPCYIVRF | inactive |
| FEWFQCIYA | inactive |
| FFAECCRGNKCYMRSKDDQS | inactive |
| FFARDVRSN | inactive |
| FFCKRFYSKFPDQWLAHSVE | inactive |
| FFCSSTPKSWMCKQTL | inactive |
| FFFTEFFELHIWTKSLPFTS | inactive |
| FFFVSSIRIICRV | inactive |
| FFFYLPICTLGILYLFDCKA | 0.386 ± 0.2 |
| FFGFPLV | inactive |
| FFIDFVGTRCFN | inactive |
| FFLTHGCTCEDALKFGWVCY | inactive |
| FFNIYLVRNSYQKTCAGLTR | 2.05 ± 0.091 |
| FFNYIIMEIHFFALLSHRKH | inactive |
| FFPDGDQTYMA | inactive |
| FFQESYLGMDLYELSTYNNV | inactive |
| FFRIVSLCSSPGNGEDKDRL | inactive |
